From PMC11549370, “Two distinct regulatory pathways govern Cct2-Atg8 binding in the process of solid aggrephagy” (EMBO Reports, 2024)

Columns and labels:
Atg11 = Atg11 (UniProt Q12527); test: anti-FLAG co-IP, anti-HA blot; settings: reference: wild-type 3×HA-Cct2; sites S412,S470
LC3C = LC3C (UniProt Q9BXW4); test: anti-FLAG co-IP, anti-HA blot; settings: reference: HA-CCT2 wild type; sites S458
[1] = biological target: T1, GST-Cct2 phosphorylated in vitro by Atg1 (S. cerevisiae, UniProt P39076 1-527, phosphorylated by Atg1; the paper maps the sites to S412 and S470); test: pull-down; GST-Cct2 first incubated with Atg1-3×FLAG and ATP (30 °C, 30 min), enriched on GST beads, then His-Atg8 or Atg11 CC4 added in interaction buffer (1 mM EDTA, 1 mM EGTA, 150 mM NaCl, 1% Triton X-100 in 1×PBS), 2 h, 4 °C; Coomassie staining; settings: both partners purified
T1 construct: Cct2, S. cerevisiae; also called phosphorylated GST-Cct2 WT; phosphorylated products; source: E. coli, purified, then incubated with WT Atg1-3×FLAG (from yeast) and ATP and enriched on GST beads; not shown: GST, N-terminal, kept

GST-Cct2 D473A = biological target: T2, GST-Cct2 D473A (S. cerevisiae, UniProt P39076 1-527, D473A); test: pull-down; in vitro GST pulldown: GST-tagged protein on GST beads, prey added in binding buffer B (1 mM EDTA, 1 mM EGTA, 150 mM NaCl, 1% Triton X-100 in 1×PBS), 3 h, 4 °C; SDS-PAGE, Coomassie staining; settings: both partners purified
T2 construct: Cct2, S. cerevisiae; also called pGEX-4T-1-Cct2 D473A; source: E. coli, purified; not shown: GST, N-terminal, kept

GST-Cct2 I487E = biological target: T3, GST-Cct2 I487E (S. cerevisiae, UniProt P39076 1-527, I487E); test: as above; settings: both partners purified
T3 construct: Cct2, S. cerevisiae; also called pGEX-4T-1-Cct2 I487E; source: E. coli, purified; not shown: GST, N-terminal, kept

GST-Cct2 = biological target: T4, GST-Cct2 (S. cerevisiae, UniProt P39076 1-527); test: as above; settings: both partners purified
T4 construct: Cct2, subunit of the TRiC complex, S. cerevisiae; the CCT2 gene cloned into pGEX-4T-1; also called WT GST-Cct2; pGEX-4T-1-Cct2; source: E. coli, purified; not shown: GST, N-terminal, kept

[2] = biological target: T5, GST-Cct2 S412A-S470A (2A) (S. cerevisiae, UniProt P39076 1-527, S412A | S470A); test: as above; settings: both partners purified
T5 construct: Cct2, S. cerevisiae; also called Cct2-2A mutant protein; pGEX-4T-1-Cct2 S412A-S470A(2A); source: E. coli, purified; not shown: GST, N-terminal, kept
T5 sequence (P39076 whole entry S412A/S470A): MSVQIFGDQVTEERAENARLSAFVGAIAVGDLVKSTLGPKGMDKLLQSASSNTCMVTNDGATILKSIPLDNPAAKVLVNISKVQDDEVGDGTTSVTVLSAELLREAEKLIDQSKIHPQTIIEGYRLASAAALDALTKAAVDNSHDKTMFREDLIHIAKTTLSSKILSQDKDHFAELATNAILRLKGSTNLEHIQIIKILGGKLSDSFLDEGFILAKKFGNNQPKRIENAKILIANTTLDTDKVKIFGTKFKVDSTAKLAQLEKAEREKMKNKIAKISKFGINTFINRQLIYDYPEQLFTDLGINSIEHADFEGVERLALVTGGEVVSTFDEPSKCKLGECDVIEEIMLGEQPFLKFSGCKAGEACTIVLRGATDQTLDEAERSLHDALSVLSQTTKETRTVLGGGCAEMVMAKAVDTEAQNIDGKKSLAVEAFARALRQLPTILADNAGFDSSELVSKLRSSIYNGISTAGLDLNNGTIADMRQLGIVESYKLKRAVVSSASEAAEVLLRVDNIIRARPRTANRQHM

T4 sequence (P39076 whole entry): as the sequence (P39076 whole entry S412A/S470A) above, with A412S, A470S counted along it
T1 sequence (P39076 whole entry): as the sequence (P39076 whole entry S412A/S470A) above, with A412S, A470S counted along it
T3 sequence (P39076 whole entry I487E): as the sequence (P39076 whole entry S412A/S470A) above, with A412S, A470S, I487E counted along it
T2 sequence (P39076 whole entry D473A): as the sequence (P39076 whole entry S412A/S470A) above, with A412S, A470S, D473A counted along it

## Cct2 (from UniProt P39076) 3×HA-Cct2 S412A-S470A
Atg11
  binding against the reference: weaker

## CCT2 (hCCT2) (from UniProt P78371) HA-CCT2 S458A
LC3C
  binding against the reference: weaker

B1: His-Atg8 (natural protein, S. cerevisiae, UniProt P38182 1-117, looked up)
chain: MKSTFKSEYPFEKRKAESERIADRFKNRIPVICEKAEKSDIPEIDKRKYLVPADLTVGQFVYVIRKRIMLPPEKAIFIFVNDTLPPTAALMSAIYQEHKDKDGFLYVTYSGENTFGR
notes: Atg8, S. cerevisiae; source: E. coli, purified; not shown: His, N-terminal, kept
[1]
  binding result: binds
GST-Cct2 D473A
  binding result: binds
GST-Cct2 I487E
  binding result: binds
GST-Cct2
  binding result: binds
[2]
  binding result: binds
